Data reported in the RNAGym collection of RNA variant scans (doi:10.1073/pnas.2313332121).

B1: TPR t1 (parent)
chain: GACCAAUCUGCCCUCAGAGCUCGAGAACAUCUUCGGAUGCAGAGGAGGCAGGCUUCGGUGGCGCGAUAGCGCCAACGUCCUCAACCUCCAAUGCAUCCCACCACAUGAUGAUGCCUGAAGAGCCUUGGUUUUUUG

Variants of: B1
Assay: polymerase ribozyme fitness, log enrichment relative to wild type (log ratio); higher = more active; in vitro selection for triplet polymerase activity
In short: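 Libraries of mutants in each subunit of a heterodimeric triplet polymerase ribozyme were generated by PCR and transcribed. In triplicate, each went through one in vitro selection round: annealing with biotinylated primer, partner subunit and triplets; frozen incubation at −7 °C; gel excision of extended constructs; streptavidin-bead capture; RT-PCR. Fitness, taken from Illumina sequencing of input and output libraries, is the logarithm of a genotype's enrichment over wild-type enrichment, averaged across replicates with inverse-variance weights. The logarithm is base 2, and genotypes needed ≥10 input reads and ≥1 read per output to be kept.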
In the case of GACCAAUCUGCCCUAAGUGCUCGAGAACAUCUUCGGAUGCAGAGGAGGCAGGCUUCGGUGGCGCGAUAGCGCCAACGUCCUCAACCUCCAAUGCAUCUCACCACAUCAUGAUUCCUGAAGAGCCGUGGUUUUUUG [C15A A18U C98U G107C G113U U125G], the “polymerase ribozyme fitness (log ratio)” value is reported as -6.57.
In the case of GACCAAUCUGCCCUAAGUGCUCGAGAACAUCUUCGGAUGCAGAGGAGGCAGGAUUCGGUGGCGCGAUAGCGCCAACGUCCUCAACCUCCAAUGCAUCCCACCACAUGAUGACGCCUGAAGAGCCUUAGUUUUUUG [C15A A18U C53A U112C G127A], the “polymerase ribozyme fitness (log ratio)” value is reported as -5.64.
With GACCAAUCUGCCCUAAGAGCUCGAGACCAUCUUCGGAUGCAGAGGAGGCAGGCUGCGGUGGCGCGAUAGCGCCAACGUCCUCAACCUCCAAUGCAUCCCACCACAUGAUGUUGCCUGAAGAGCCUUGGUUUUUUG [C15A A27C U55G A111U] the “polymerase ribozyme fitness (log ratio)” value was -6.51.
With GACCAAUCUGCCCGCAGAGCUCGAGAACAUCUUCGGAUGCAGAGGAGGCAGGCUUCGGUGGCGCGAUAGCGCCAACGUCCUCAACCUCCAAUGCAUCCCACCACAUGAUGAUGCCUGAAGAGCCAUGGUUUUUUG [U14G U125A] the “polymerase ribozyme fitness (log ratio)” value was -2.09.
In the case of GACCAAUCUGCCCUAAGAGCUCGAGAACAUCUUCGGAUGCAGAGGAGGCAGGCUUCGGUGGCGCGAUAGCGCCAACGUCCUCAACCUCCAAUGCAUCCCACCACAUGAUGAUGCCUGAAGAGCCUUGGUUUUUUG [C15A], the “polymerase ribozyme fitness (log ratio)” value is reported as -1.85.
In the case of GACCAAUCUGCCCGCAGAGCUCGAGAACAUCUUCGGAUGCAGAGGAGGCAGGCUUCGGUGGCGCGAUAGCGCCAAAGUCCUCAACCUCCAAUGCAUCCCACCACAUGAUGAUGCCUGAAGAGCCUUGGUUUUUUG [U14G C76A], the “polymerase ribozyme fitness (log ratio)” value is reported as -2.76.
With GACCAAUCUGCCCGCAGAGCUCGAGAACAUCUUCGGAUGCAGAGGAGGCAGGCUUCGGUGGCGCGAUAGCUCCAACGUCCUCAACCUCCAAUGCAUCCCACCACAUGAUGAUGCCUGAAGAGCCUUGGUUUUUUG [U14G G71U] the “polymerase ribozyme fitness (log ratio)” value was -2.33.
For GACCAAUCUGCCCUAAGAGCUCGAGAACUUCUUCGGAUGCAGAGGAGGCAGGCUUCGGUGGCGCGAUAGCGCUAACGUCCUCAACCUCCAAUGCAUCCCACCACAUGAUGAUGCUUGAAGAGCCUUGGUUAUUUG [C15A A29U C73U C115U U131A], the “polymerase ribozyme fitness (log ratio)” value was -2.29.
With GACCAAUCUGCCCUAAGAGCUCGAGACCAUCUUCGGAUGCAGAGGAGGCAGGCUACGGUGGCGCGAUAGCGCCAACGUCCUCAACCUCCAAUGCAUCCCACCACAUGAUGAUGCCUGAAGAGCCUUGGUUUUUUG [C15A A27C U55A] the “polymerase ribozyme fitness (log ratio)” value was -5.44.
In the case of GACCAAUCUGCCCGCAGAGCUCGAGAACAUCUUCGGAUGCAGAGGAGGAAGGCUUCGGUGGCGCGAUAGCGCCAACGUCCUCAACCUCCAAUGCAACCCACCACAUGAUGAUGCCUGAAGAGCCUUGGUUUUUUG [U14G C49A U96A], the “polymerase ribozyme fitness (log ratio)” value is reported as -3.85.
With GACCAAUCUGCCCGCAGAGCUCGAGAACAUCUUCGGAUGCAGAGGAGGCAGGCUUCGGUGGCGCGAUAGGGCCAACGUCCUCAACCUCCAAUGCAUCCCACCACAUGAUGAUGCCUGAAGAGCCUUGGUUUUUUG [U14G C70G] the “polymerase ribozyme fitness (log ratio)” value was -3.6.
In the case of GACCAAUCUGCCCGCAGAGCUCGAGAACAUCUUCGGAUGCAGAGGAGGCAGGCUUCGGUGGUGCGAUAGCGCCAACGUCCUCAACCUCCAAUGCAUCCCACCACAUGAUGAUGCCUGAAGAGCCUUGGUUUUUUG [U14G C62U], the “polymerase ribozyme fitness (log ratio)” value is reported as -1.97.
In the case of GACCAAUCUGCCCGCAGAGCUCGAGAACAUCUUCGGAUGCAGAGGAGACAGGCUUCGGUGGCGCGAUAGCGCCAACGUCCUCAACCUCCAAUGCAUCCCACCAAAUGAUGAUGCCUGAAGAGCCUUGGUUUUUUG [U14G G48A C104A], the “polymerase ribozyme fitness (log ratio)” value is reported as -3.69.
For GACCAAUCUGCCCUAAGAGCUCGAGGACAUCUUCGGAUGCAGAUGAGGCAGGCUUCGGUGGCGCGAUAGCGCCAACGUCCUCAACCUCAAAUGCAUCCCACCACAUGAUGAUGCCUGAACAGCCUUGGUUUUUUG [C15A A26G G44U C89A G120C], the “polymerase ribozyme fitness (log ratio)” value was -5.42.
With GACCAAUCUGCCCGCAGAGCUCGAGAACAUCUUCGGAUGCAGAGCAGGCAGGCUUCGGUGGCGCGAUAGCGCCAACGUCCUCAACCUCCAAUGCAUCCCACCACAUGAUGAUGCCUGAAGAGCCUUGGUUUUUUG [U14G G45C] the “polymerase ribozyme fitness (log ratio)” value was -3.41.
For GACCAAUCUGCCCGCAGAGCUCGAGAACAUCUUCGGAUGCAGAGGAGGCAGGCUUCGGUGUCGCGAUAGCGCCAACGUCCUCAACGUCCAAUGCAUCCCACCACAUGAUGAUGCGUGAAGAGCCUUGGUUUUUUG [U14G G61U C86G C115G], the “polymerase ribozyme fitness (log ratio)” value was -5.92.
With GACCAAUCUGCCCUAAGAGCUCGAGACCAUCUUCGGAUGCAGAGGAGGCAGGCUUCGGUGGCGCGAUAGCGCCAACGUCCUCAACCUCCAAUGCAUCCCACCACAUGAUGAUGCCUGAAGAGCCUUGGUUUUUUG [C15A A27C] the “polymerase ribozyme fitness (log ratio)” value was -4.33.
For GACCAAUCUGCCCGCAGAGCUCGAGAACAUCUUCGGAUGCAGAGGAGGCAGGCUUUGGUGGCGCGAUAGAGCCAACGUCCUCCACCUCCAAUGCAUCCCACCAGAUGAUAAUGCCAGAAGAGCCUUGGUUUUUUG [U14G C56U C70A A83C C104G G110A U116A], the “polymerase ribozyme fitness (log ratio)” value was -5.43.
For GACCAAUCUGCCCGCAGAGCUCGAGAACAUCUUCGGAUGCAGAGGAGGCAGGCUUCGGUGGCGCGAUAGCGUCAACGUCCUCAACCUCCAAUGCAUCCCACCACAUGAUGAUGCCUGAAGAGCCUUGGUUUUUUU [U14G C72U G135U], the “polymerase ribozyme fitness (log ratio)” value was -2.55.
In the case of GACCAAUCUGCCCGCAGAACUCGAGAACAUCUUCGGAUGCAAAGGAGGCAGGCUUAGGUGGCGCGAUAGCGCCAACGUCCUCAACCUCCAAUCCAUCCCACCACAUGAUGAUGCCUGAAGAGCCUUGGUUUUUUG [U14G G19A G42A C56A G93C], the “polymerase ribozyme fitness (log ratio)” value is reported as -5.15.
In the case of GACCAAUCUGCCCGCAGAGCUCGAGAACAUCUUCGGAUGCAGAGGAGGCAGGCUUCGGUGGCGCGAUAGCGCUAACGUCCUCAACCUCCGAUGCAUCCCACCACAUGAUGAUGCCUGAAGAGCAUUGGUUUUUUG [U14G C73U A90G C124A], the “polymerase ribozyme fitness (log ratio)” value is reported as 1.54.
